pKd: −log10 of the molar value.

Assay in all cases: other fluorescence titration; single-molecule FRET on freely diffusing ClpB hexamers (1:100 labeled:unlabeled, ~50 pM labeled, ~5 nM total) with increasing concentrations of unlabeled κ-casein; ratio of H2MM-derived state 1 population with and without κ-casein fitted to a simple binding isotherm; 25 mM HEPES, 25 mM KCl, 10 mM MgCl2, 2 mM ATP, 0.01% Tween 20, pH 8, 22°C
The target of assay [1] is ClpB PL2 BB construct A281C-S359C with E271A/E668A, hexamer with one labeled protomer (Thermus thermophilus) (UniProt Q9RA63).
Assay [2] addresses ClpB PL3 construct S359C-Y646C (wt), hexamer with one labeled protomer (Thermus thermophilus) (UniProt Q9RA63).
Assay [3] concerns the target ClpB PL2 construct A281C-S359C (wt), hexamer with one labeled protomer (Thermus thermophilus) (UniProt Q9RA63).
The target in assay [4] is ClpB PL1 construct S236C-S359C (wt), hexamer with one labeled protomer (Thermus thermophilus) (UniProt Q9RA63).

Usually pKd stands for the negative decadic logarithm of the Kd, by convention in mol/L. “κ-casein (from UniProt P02668 22-190) (natural protein)”: the pKd in assay [1] is 6.52; in assay [2] it was 6.05; in assay [3], 4.95; in assay [4] it was 5.54.

(Values after article PMC10870172.)
